Assay results from publication PMC4192540, “Targeted In Vivo Inhibition of Specific Protein–Protein Interactions Using Recombinant Antibodies” (PLoS ONE, 2014).
Blank lines part the entries; values can stand above or below the binder they belong to.

Key:
Details in all cases: partners not purified
[1] = biological target: T1, ARABIDOPSIS … PHOSPHOTRANSFER PROTEIN 6, Gal4 activation domain fusion (Arabidopsis thaliana (Mouse-ear cress)., UniProt Q9SSC9); assay: two-hybrid; recombinant antibodies as Gal4 DNA BD fusions (pGBKT7), AHP proteins as Gal4 AD fusions (pGADT7-DEST); S. cerevisiae PJ69-4A; growth after 3 days at 30°C on media lacking Leu, Trp and His or Ade; 1-5 mM 3-Amino-1,2,4-triazole for stringent selection
T1 construct: ARABIDOPSIS … PHOSPHOTRANSFER PROTEIN 6 (AHP6), A. thaliana; also called AHP6; source: yeast two-hybrid fusion (pGADT7-DEST, S. cerevisiae PJ69-4A)
T1 sequence (Q9SSC9 whole entry, the tested form may be a part): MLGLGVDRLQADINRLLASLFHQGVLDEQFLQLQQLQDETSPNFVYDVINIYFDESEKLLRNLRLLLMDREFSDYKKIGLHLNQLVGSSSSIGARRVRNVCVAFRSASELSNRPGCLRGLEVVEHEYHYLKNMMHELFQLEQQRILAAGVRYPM

[2] = biological target: T2, ARABIDOPSIS … PHOSPHOTRANSFER PROTEIN 2, Gal4 activation domain fusion (A. thaliana, UniProt Q9ZNV8); assay: as above
T2 construct: ARABIDOPSIS … PHOSPHOTRANSFER PROTEIN 2 (AHP2), A. thaliana; also called AHP2; source: yeast two-hybrid fusion (pGADT7-DEST, S. cerevisiae PJ69-4A)
T2 sequence (Q9ZNV8 whole entry, the tested form may be a part): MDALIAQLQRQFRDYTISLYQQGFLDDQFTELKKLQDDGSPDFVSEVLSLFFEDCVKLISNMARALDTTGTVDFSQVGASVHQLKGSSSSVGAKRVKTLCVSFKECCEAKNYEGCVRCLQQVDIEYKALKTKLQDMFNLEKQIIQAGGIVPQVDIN

[3] = biological target: T3, ARABIDOPSIS … PHOSPHOTRANSFER PROTEIN 4, Gal4 activation domain fusion (Arabidopsis thaliana (Mouse-ear cress)., UniProt Q9LU15); assay: as above
T3 construct: ARABIDOPSIS … PHOSPHOTRANSFER PROTEIN 4 (AHP4), A. thaliana; also called AHP4; source: yeast two-hybrid fusion (pGADT7-DEST, S. cerevisiae PJ69-4A)
T3 sequence (Q9LU15 whole entry, the tested form may be a part): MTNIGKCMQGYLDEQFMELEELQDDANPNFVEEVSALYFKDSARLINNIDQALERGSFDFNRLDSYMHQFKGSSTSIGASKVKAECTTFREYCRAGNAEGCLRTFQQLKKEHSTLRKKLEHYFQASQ

[4] = biological target: T4, ARABIDOPSIS … PHOSPHOTRANSFER PROTEIN 1, Gal4 activation domain fusion (Arabidopsis thaliana (Mouse-ear cress)., UniProt Q9ZNV9); assay: as above
T4 construct: ARABIDOPSIS … PHOSPHOTRANSFER PROTEIN 1 (AHP1), A. thaliana; also called AHP1; source: yeast two-hybrid fusion (pGADT7-DEST, S. cerevisiae PJ69-4A)
T4 sequence (Q9ZNV9 whole entry, the tested form may be a part): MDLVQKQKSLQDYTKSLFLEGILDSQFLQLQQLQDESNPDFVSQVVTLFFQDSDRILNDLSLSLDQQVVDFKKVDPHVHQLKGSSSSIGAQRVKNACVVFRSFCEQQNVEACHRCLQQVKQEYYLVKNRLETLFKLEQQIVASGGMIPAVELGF

[5] = biological target: T5, ARABIDOPSIS … PHOSPHOTRANSFER PROTEIN 5, Gal4 activation domain fusion (A. thaliana, UniProt Q8L9T7); assay: as above
T5 construct: ARABIDOPSIS … PHOSPHOTRANSFER PROTEIN 5 (AHP5), A. thaliana; also called AHP5; source: yeast two-hybrid fusion (pGADT7-DEST, S. cerevisiae PJ69-4A)
T5 sequence (Q8L9T7 whole entry, the tested form may be a part): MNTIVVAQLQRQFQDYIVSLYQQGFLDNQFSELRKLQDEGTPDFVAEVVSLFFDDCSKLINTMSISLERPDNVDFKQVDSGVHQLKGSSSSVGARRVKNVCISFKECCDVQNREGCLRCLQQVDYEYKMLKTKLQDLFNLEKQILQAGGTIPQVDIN

[6] = biological target: T6, ARABIDOPSIS … PHOSPHOTRANSFER PROTEIN 3, Gal4 activation domain fusion (A. thaliana, UniProt Q9SAZ5); assay: as above
T6 construct: ARABIDOPSIS … PHOSPHOTRANSFER PROTEIN 3 (AHP3), A. thaliana; also called AHP3; source: yeast two-hybrid fusion (pGADT7-DEST, S. cerevisiae PJ69-4A)
T6 sequence (Q9SAZ5 whole entry, the tested form may be a part): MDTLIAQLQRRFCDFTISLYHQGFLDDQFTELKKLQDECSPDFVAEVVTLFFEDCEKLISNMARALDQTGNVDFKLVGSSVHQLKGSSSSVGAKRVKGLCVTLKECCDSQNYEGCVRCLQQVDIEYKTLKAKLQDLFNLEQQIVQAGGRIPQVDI

[7] = biological target: T6, ARABIDOPSIS … PHOSPHOTRANSFER PROTEIN …; assay: two-hybrid; yeast three-hybrid: receiver domain as Gal4 BD fusion, AHP proteins as Gal4 AD fusions, scFv hB7A expressed ectopically from pY3HS or empty pY3HS; S. cerevisiae PJ69-4A; media lacking Leu, Trp, Ura and His or Ade, or with 1 mM 3-Amino-1,2,4-triazole
AHP3:cYFP = biological target: T7, AHP3:cYFP (Arabidopsis thaliana (Mouse-ear cress)., UniProt Q9SAZ5); assay: split reporter (BiFC, NanoBiT); bimolecular fluorescent complementation with split YFP in A. thaliana Col-0 mesophyll protoplasts, 16 h at room temperature, confocal microscopy
T7 construct: ARABIDOPSIS … PHOSPHOTRANSFER PROTEIN 3 (AHP3), A. thaliana; source: A. thaliana Col-0 mesophyll protoplasts, transfected; not shown: C-terminal fragment of YFP (cYFP), C-terminal, kept
T7 sequence (Q9SAZ5 whole entry, the tested form may be a part): as above

cYFP:CKI1 RD = biological target: T8, cYFP:CKI1 RD (Arabidopsis thaliana, UniProt O22267); assay: as above
T8 construct: CYTOKININ INDEPENDENT … KINASE 1 (CKI1), A. thaliana, receiver domain; source: A. thaliana mesophyll protoplasts, co-transformed; not shown: C-terminal fragment of YFP (cYFP), N-terminal, kept
T8 sequence (O22267 whole entry, looked up, the tested form may be a part): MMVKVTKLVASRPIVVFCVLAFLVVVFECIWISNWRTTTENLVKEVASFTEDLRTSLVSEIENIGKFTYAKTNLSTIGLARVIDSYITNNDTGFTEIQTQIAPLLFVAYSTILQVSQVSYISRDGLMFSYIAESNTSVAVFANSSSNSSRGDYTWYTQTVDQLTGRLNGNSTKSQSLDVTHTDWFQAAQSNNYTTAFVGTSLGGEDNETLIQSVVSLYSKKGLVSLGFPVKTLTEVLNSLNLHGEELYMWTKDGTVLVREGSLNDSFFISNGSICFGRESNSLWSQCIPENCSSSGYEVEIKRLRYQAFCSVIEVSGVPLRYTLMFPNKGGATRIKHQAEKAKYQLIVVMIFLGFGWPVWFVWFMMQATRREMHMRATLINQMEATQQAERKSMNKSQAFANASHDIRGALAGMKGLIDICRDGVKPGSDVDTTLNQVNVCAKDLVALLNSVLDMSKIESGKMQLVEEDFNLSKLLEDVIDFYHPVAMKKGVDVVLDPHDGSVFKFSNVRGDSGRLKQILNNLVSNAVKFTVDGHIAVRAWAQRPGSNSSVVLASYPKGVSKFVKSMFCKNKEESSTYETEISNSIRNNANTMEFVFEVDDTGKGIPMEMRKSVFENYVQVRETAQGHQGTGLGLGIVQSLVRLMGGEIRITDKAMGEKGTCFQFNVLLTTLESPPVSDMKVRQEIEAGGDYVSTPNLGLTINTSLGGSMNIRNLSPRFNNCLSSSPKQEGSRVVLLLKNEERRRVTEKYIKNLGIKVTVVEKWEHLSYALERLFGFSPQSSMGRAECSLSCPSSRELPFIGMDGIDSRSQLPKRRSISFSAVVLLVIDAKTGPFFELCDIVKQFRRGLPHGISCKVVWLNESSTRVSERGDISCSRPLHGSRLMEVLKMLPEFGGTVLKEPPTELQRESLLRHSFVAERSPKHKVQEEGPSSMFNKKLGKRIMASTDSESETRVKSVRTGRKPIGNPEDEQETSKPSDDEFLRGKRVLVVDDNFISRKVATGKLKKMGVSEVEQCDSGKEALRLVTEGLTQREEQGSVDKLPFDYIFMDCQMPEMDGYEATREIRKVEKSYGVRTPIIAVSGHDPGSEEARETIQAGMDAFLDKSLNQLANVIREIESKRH

[8] = biological target: T9, recombinant ARABIDOPSIS … PHOSPHOTRANSFER PROTEIN 3 with 6x-His-tag (Arabidopsis thaliana (Mouse-ear cress)., UniProt Q9SAZ5); assay: far-Western, overlay or dot blot; total protein extracts of bacterially expressed AHP proteins separated by SDS-PAGE and blotted on PVDF; periplasmic extract with the scFv diluted 1:2 in blocking buffer (5% skimmed milk, TBS, 0.1% Tween-20), 1 h; detected by anti-c-myc-tag antibody
T9 construct: ARABIDOPSIS … PHOSPHOTRANSFER PROTEIN 3 (AHP3), A. thaliana; also called AHP3; AHP3 antigen; source: purified
T9 sequence (Q9SAZ5 whole entry): as the sequence (Q9SAZ5 whole entry, the tested form may be a part) above

binding result [1]: no binding
binding result [2]: no binding
binding result [3]: no binding
binding result [4]: no binding
binding result [5]: no binding
binding result [6]: binds
B1: scFv hB7A, Gal4 DNA binding domain fusion (scFv, V domains shown)
VH: EVQLLESGGGLVQPGGSLRLSCAASGFTFSFYRMSWVRQAPGKGLEWVSAISGSGGSTYYADSVKGRFTISRDNSKNTLYLQMNSLRAEDTAVYYCAKRVLTFDYWGQGTLVTVSS
VL: DIQMTQSPSSLSASVGDRVTITCRASQSIRKRLNWYQQKPGKAPKLLIYAASSLQSGVPSRFSGSGSGTDFTLTISSLQPEDFATYYCQQSYSTPPTFGQGTKVEIK
notes: selected from Human Single Fold scFv Library A+B; cloned between NcoI and NotI of pGBKT7; source: yeast two-hybrid fusion (pGBKT7, S. cerevisiae PJ69-4A)

binding result [8]: binds
B4: scFv hB7A with C-terminal c-myc-tag (scFv, V domains shown)
VH: B1 VH
VL: B1 VL
notes: source: E. coli BL21(DE3), periplasmic extract; purified (ammonium sulfate, Protein L column); not shown: c-myc-tag, C-terminal, kept

binding result (AHP3:cYFP): binds
B5: scFv-hB7A:nYFP (scFv, V domains shown)
VH: B1 VH
VL: B1 VL
notes: sub-cloned from pY3HS with BglII and EcoRI, so the StrepTag II of the cassette may be carried along (surmise); source: A. thaliana Col-0 mesophyll protoplasts, transfected; not shown: N-terminal fragment of YFP (nYFP), C-terminal, kept

Second part, the binder before the results:

B2: scFv hB7A, ectopic expression from pY3HS (scFv, V domains shown)
VH: B1 VH
VL: B1 VL
notes: source: S. cerevisiae PJ69-4A, ectopic expression from pY3HS
binding result [7]: binds

B3: nYFP:scFv-hB7A (scFv, V domains shown)
VH: B1 VH
VL: B1 VL
notes: sub-cloned from pY3HS with BglII and EcoRI, so the StrepTag II of the cassette may be carried along (surmise); source: A. thaliana Col-0 mesophyll protoplasts, transfected; not shown: N-terminal fragment of YFP (nYFP), N-terminal, kept
binding result (AHP3:cYFP): binds
binding result (cYFP:CKI1 RD): no binding
